B1: B. subtilis Smc (enzyme, Bacillus subtilis, UniProt P51834 1-1186, looked up)
chain: MFLKRLDVIGFKSFAERISVDFVKGVTAVVGPNGSGKSNITDAIRWVLGEQSARSLRGGKMEDIIFAGSDSRKRLNLAEVTLTLDNDDHFLPIDFHEVSVTRRVYRSGESEFLINNQPCRLKDIIDLFMDSGLGKEAFSIISQGKVEEILSSKAEDRRSIFEEAAGVLKYKTRKKKAENKLFETQDNLNRVEDILHELEGQVEPLKIQASIAKDYLEKKKELEHVEIALTAYDIEELHGKWSTLKEKVQMAKEEELAESSAISAKEAKIEDTRDKIQALDESVDELQQVLLVTSEELEKLEGRKEVLKERKKNAVQNQEQLEEAIVQFQQKETVLKEELSKQEAVFETLQAEVKQLRAQVKEKQQALSLHNENVEEKIEQLKSDYFELLNSQASIRNELQLLDDQMSQSAVTLQRLADNNEKHLQERHDISARKAACETEFARIEQEIHSQVGAYRDMQTKYEQKKRQYEKNESALYQAYQYVQQARSKKDMLETMQGDFSGFYQGVKEVLKAKERLGGIRGAVLELISTEQKYETAIEIALGASAQHVVTDDEQSARKAIQYLKQNSFGRATFLPLSVIRDRQLQSRDAETAARHSSFLGVASELVTFDPAYRSVIQNLLGTVLITEDLKGANELAKLLGHRYRIVTLEGDVVNPGGSMTGGAVKKKNNSLLGRSRELEDVTKRLAEMEEKTALLEQEVKTLKHSIQDMEKKLADLRETGEGLRLKQQDVKGQLYELQVAEKNINTHLELYDQEKSALSESDEERKVRKRKLEEELSAVSEKMKQLEEDIDRLTKQKQTQSSTKESLSNELTELKIAAAKKEQACKGEEDNLARLKKELTETELALKEAKEDLSFLTSEMSSSTSGEEKLEEAAKHKLNDKTKTIELIALRRDQRIKLQHGLDTYERELKEMKRLYKQKTTLLKDEEVKLGRMEVELDNLLQYLREEYSLSFEGAKEKYQLETDPEEARKRVKLIKLAIEELGTVNLGSIDEFERVNERYKFLSEQKEDLTEAKNTLFQVIEEMDEEMTKRFNDTFVQIRSHFDQVFRSLFGGGRAELRLTDPNDLLHSGVEIIAQPPGKKLQNLNLLSGGERALTAIALLFSILKVRPVPFCVLDEVEAALDEANVFRFAQYLKKYSSDTQFIVITHRKGTMEEADVLYGVTMQESGVSKVISVKLEETKEFVQ
notes: Smc (ATPase of the Smc-ScpAB complex), Bacillus subtilis; gene cloned into pET21a; expected mass printed as 135.5 kDa; source: E. coli Rosetta (DE3), purified (HiTrap Q flow-through, Ni-NTA)
B2: B. subtilis ScpA (natural protein, Bacillus subtilis, UniProt P35154 1-251, looked up)
chain: MEEYQVKIDTFEGPLDLLLHLINRLEIDIYDIPVAKITEQYLLYVHTMRVLELDIASEYLVMAATLLSIKSRMLLPKQEEELFEDELLEEEDPREELIEKLIEYRKYKDAAKDLKEREEERQKSFTKPPSDLSEYAKEVKQSEQKLSVTVYDMIGAFQKVLKRKKINRPMETTITRQDIPIEARMNEIVHSLKSRGTRINFMDLFPYEQKEHLVVTFLAVLELMKNQLVLIEQEHNFSDIYITGSESIHGA
notes: ScpA (kleisin of the Smc-ScpAB complex), Bacillus subtilis; gene cloned into pET21a; expected mass printed as 31 kDa; source: E. coli Rosetta (DE3), purified (Ni-NTA, MonoQ)
B3: B. subtilis ScpB (natural protein, Bacillus subtilis, UniProt P35155 1-197, looked up)
chain: MGLDIVNWKAIVEALLYAAGDEGLTKKQLLTVLEIEEPELNTIMADVADEYRGDTRGIELIEYADTYMLSTKKDFAPYLKKLIEVPSKGLSQASLEVLAIVSYKQPITRAEIEEIRGVKSERILHSLVAKALLCEVGRADGPGRAILYGTTPTFLEQFGLKTLDELPPLPENAEEDVLQEEADLFFENFNQTFEDIK
notes: ScpB (KITE protein of the Smc-ScpAB complex), Bacillus subtilis; gene cloned into pET21a; expected mass printed as 23.2 kDa; source: E. coli Rosetta (DE3), purified (Ni-NTA, MonoQ)

Columns and labels:
Assay in all cases: cross-linking; purified proteins in various combinations incubated with or without 0.4% formaldehyde in Hepes 50 mM pH 7.5, NaCl 100 mM, DTT 0.1 mM, 20% glycerol; denatured at 65°C with SDS and BME; SDS-PAGE; bands identified by mass spectrometry (peptide fingerprinting)
[1] = biological target: the molecule itself
[2] = biological target: B1; conditions: both partners purified
[3] = biological target: B2; conditions: both partners purified

Binder	stoichiometry N [1]	binding result [2]	binding result [3]
B1	2	–	–
B2	–	binds	–
B3	2	–	binds
